Source: IntAct's records for PubMed 21771788

B1: Cytoplasmic 60S subunit biogenesis factor ZNF622 (Homo sapiens), Q969S3 (parent)
chain: MATYTCITCRVAFRDADMQRAHYKTDWHRYNLRRKVASMAPVTAEGFQERVRAQRAVAEEESKGSATYCTVCSKKFASFNAYENHLKSRRHVELEKKAVQAVNRKVEMMNEKNLEKGLGVDSVDKDAMNAAIQQAIKAQPSMSPKKAPPAPAKEARNVVAVGTGGRGTHDRDPSEKPPRLQWFEQQAKKLAKQQEEDSEEEEEDLDGDDWEDIDSDEELECEDTEAMDDVVEQDAEEEEAEEGPPLGAIPITDCLFCSHHSSSLMKNVAHMTKDHSFFIPDIEYLSDIKGLIKYLGEKVGVGKICLWCNEKGKSFYSTEAVQAHMNDKSHCKLFTDGDAALEFADFYDFRSSYPDHKEGEDPNKAEELPSEKNLEYDDETMELILPSGARVGHRSLMRYYKQRFGLSRAVAVAKNRKAVGRVLQQYRALGWTGSTGAALMRERDMQYVQRMKSKWMLKTGMKNNATKQMHFRVQVRF
B2: Mitogen-activated protein kinase kinase kinase 5 (Homo sapiens), Q99683 (parent)
chain: MSTEADEGITFSVPPFAPSGFCTIPEGGICRRGGAAAVGEGEEHQLPPPPPGSFWNVESAAAPGIGCPAATSSSSATRGRGSSVGGGSRRTTVAYVINEASQGQLVVAESEALQSLREACETVGATLETLHFGKLDFGETTVLDRFYNADIAVVEMSDAFRQPSLFYHLGVRESFSMANNIILYCDTNSDSLQSLKEIICQKNTMCTGNYTFVPYMITPHNKVYCCDSSFMKGLTELMQPNFELLLGPICLPLVDRFIQLLKVAQASSSQYFRESILNDIRKARNLYTGKELAAELARIRQRVDNIEVLTADIVINLLLSYRDIQDYDSIVKLVETLEKLPTFDLASHHHVKFHYAFALNRRNLPGDRAKALDIMIPMVQSEGQVASDMYCLVGRIYKDMFLDSNFTDTESRDHGASWFKKAFESEPTLQSGINYAVLLLAAGHQFESSFELRKVGVKLSSLLGKKGNLEKLQSYWEVGFFLGASVLANDHMRVIQASEKLFKLKTPAWYLKSIVETILIYKHFVKLTTEQPVAKQELVDFWMDFLVEATKTDVTVVRFPVLILEPTKIYQPSYLSINNEVEEKTISIWHVLPDDKKGIHEWNFSASSVRGVSISKFEERCCFLYVLHNSDDFQIYFCTELHCKKFFEMVNTITEEKGRSTEEGDCESDLLEYDYEYDENGDRVVLGKGTYGIVYAGRDLSNQVRIAIKEIPERDSRYSQPLHEEIALHKHLKHKNIVQYLGSFSENGFIKIFMEQVPGGSLSALLRSKWGPLKDNEQTIGFYTKQILEGLKYLHDNQIVHRDIKGDNVLINTYSGVLKISDFGTSKRLAGINPCTETFTGTLQYMAPEIIDKGPRGYGKAADIWSLGCTIIEMATGKPPFYELGEPQAAMFKVGMFKVHPEIPESMSAEAKAFILKCFEPDPDKRACANDLLVDEFLKVSSKKKKTQPKLSALSAGSNEYLRSISLPVPVLVEDTSSSSEYGSVSPDTELKVDPFSFKTRAKSCGERDVKGIRTLFLGIPDENFEDHSAPPSPEEKDSGFFMLRKDSERRATLHRILTEDQDKIVRNLMESLAQGAEEPKLKWEHITTLIASLREFVRSTDRKIIATTLSKLKLELDFDSHGISQVQVVLFGFQDAVNKVLRNHNIKPHWMFALDSIIRKAVQTAITILVPELRPHFSLASESDTADQEDLDVEDDHEEQPSNQTVRRPQAVIEDAVATSGVSTLSSTVSHDSQSAHRSLNVQLGRMKIETNRLLEELVRKEKELQALLHRAIEEKDQEIKHLKLKSQPIEIPELPVFHLNSSGTNTEDSELTDWLRVNGADEDTISRFLAEDYTLLDVLYYVTRDDLKCLRLRGGMLCTLWKAIIDFRNKQT
partner: B1 chain

Variants of: B1
Conditions: with m3k5_human MAP3K5, Q99683

Variant	effect of a mutation on the interaction
C305S	decreasing interaction
C305S;C308S	disrupting interaction
C308S	decreasing interaction

Variants of: B2
Conditions: with zn622_human ZNF622, Q969S3

Variant	effect of a mutation on the interaction
C1351S;C1360S	disrupting interaction
C1351S	decreasing interaction
C1360S	decreasing interaction

Variants of: B2
Conditions: with zn622_human ZNF622, Q969S3
Remark: another data set of the same source

Variant	effect of a mutation on the interaction
C1351S;C1360S	disrupting interaction
